*1 amine or outer side, *2 acyl side, *3 side chain or, on linkers, in order; H or OH if unused. Bridges are numbered along the chain shown (N, C = ends). Primed or numbered codes have the meaning given here. Where no end group is shown, it is not given here. [ ]: non-standard residue; d: D form. The star is where a group is joined. bMe2Nal(2S,3R) = beta-methyl-2-naphthylalanine (2S,3R), C[C@H](c1ccc2ccccc2c1)[C@H](N[*:1])C(=O)[*:2]; 4AcDPhe = D-(4-acyl)phenylalanine, CC(=O)c1ccc(C[C@@H](N[*:1])C(=O)[*:2])cc1; Phe(4-OMe)″ = 4-methoxyphenylalanine, COc1ccc(C[C@H](N[*:1])C(=O)[*:2])cc1; Trp(7-Ph) = N[C@@H](Cc1c[nH]c2c(-c3ccccc3)cccc12)C(=O)O; Trp(7-Me) = Cc1cccc2c(C[C@H](N)C(=O)O)c[nH]c12; Phe(3R-Me) = C[C@H](c1ccccc1)[C@H](N)C(=O)O; dPhe(4-NH2) = Nc1ccc(C[C@@H](N)C(=O)O)cc1; Phe(4-NH2) = Nc1ccc(C[C@H](N)C(=O)O)cc1; Ac6c(4,4-F2) = NC1(C(=O)O)CCC(F)(F)CC1; 2Nal = N[C@@H](Cc1ccc2ccccc2c1)C(=O)O; AEF = NCCOc1ccc(C[C@H](N)C(=O)O)cc1; αMeF = C[C@](N)(Cc1ccccc1)C(=O)O; Pen = CC(C)(S)[C@H](N)C(=O)O; αMeK = C[C@](N)(CCCCN)C(=O)O; αMeC = C[C@](N)(CS)C(=O)O; Thp = NC1(C(=O)O)CCOCC1; Abu = CC[C@H](N)C(=O)O; Ac3c = NC1(C(=O)O)CC1; BH = not defined here; Boc = CC(C)(C)OC(=O)*; Propionyl = CCC(=O)*
Biological target: T1, human IL-23R (interleukin-23 receptor) (human, UniProt Q5VWK5 24-629)
T1 sequence (looked up): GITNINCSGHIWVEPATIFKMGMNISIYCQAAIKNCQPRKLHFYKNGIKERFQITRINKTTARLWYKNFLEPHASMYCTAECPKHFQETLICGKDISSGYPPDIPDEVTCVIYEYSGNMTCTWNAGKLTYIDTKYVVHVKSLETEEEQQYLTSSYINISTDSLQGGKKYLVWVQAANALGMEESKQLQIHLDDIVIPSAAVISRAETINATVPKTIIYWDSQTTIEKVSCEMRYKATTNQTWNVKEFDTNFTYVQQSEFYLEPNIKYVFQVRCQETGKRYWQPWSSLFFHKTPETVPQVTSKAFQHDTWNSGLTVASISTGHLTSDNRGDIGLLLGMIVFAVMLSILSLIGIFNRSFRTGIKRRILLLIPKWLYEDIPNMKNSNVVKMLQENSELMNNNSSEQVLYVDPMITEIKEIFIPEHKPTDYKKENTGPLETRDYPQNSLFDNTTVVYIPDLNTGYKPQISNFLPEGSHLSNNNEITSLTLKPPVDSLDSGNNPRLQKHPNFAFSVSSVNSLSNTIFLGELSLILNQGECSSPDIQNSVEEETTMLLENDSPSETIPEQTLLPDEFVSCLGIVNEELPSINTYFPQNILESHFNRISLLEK
Test: cell-based or functional assay

B1: Compound No. 303 (peptide)
peptide: Ac-[dR][Pen]NT[Trp(7-Me)]K(Ac)[Pen][AEF][2Nal][Ac6c(4,4-F2)]EN[Thp]-NH2
modifications: disulfide 2-7
SMILES: CC(=O)NCCCC[C@@H]1NC(=O)[C@H](Cc2c[nH]c3c(C)cccc23)NC(=O)[C@H]([C@@H](C)O)NC(=O)[C@H](CC(N)=O)NC(=O)[C@@H](NC(=O)[C@@H](CCCNC(=N)N)NC(C)=O)C(C)(C)SSC(C)(C)[C@@H](C(=O)N[C@@H](Cc2ccc(OCCN)cc2)C(=O)N[C@@H](Cc2ccc3ccccc3c2)C(=O)NC2(C(=O)N[C@@H](CCC(=O)O)C(=O)N[C@@H](CC(N)=O)C(=O)NC3(C(N)=O)CCOCC3)CCC(F)(F)CC2)NC1=O
PBMC pSTAT3 IC50 (nM): 1.3 nM

B2: Compound No. 305 (peptide)
peptide: H-[dR][Pen]NT[Trp(7-Me)]K(Ac)[Pen][AEF](Boc)[2Nal][Thp]EN[αMeF]-NH2
modifications: disulfide 2-7
SMILES: CC(=O)NCCCC[C@@H]1NC(=O)[C@H](Cc2c[nH]c3c(C)cccc23)NC(=O)[C@H]([C@@H](C)O)NC(=O)[C@H](CC(N)=O)NC(=O)[C@@H](NC(=O)[C@H](N)CCCNC(=N)N)C(C)(C)SSC(C)(C)[C@@H](C(=O)N[C@@H](Cc2ccc(OCCNC(=O)OC(C)(C)C)cc2)C(=O)N[C@@H](Cc2ccc3ccccc3c2)C(=O)NC2(C(=O)N[C@@H](CCC(=O)O)C(=O)N[C@@H](CC(N)=O)C(=O)N[C@@](C)(Cc3ccccc3)C(N)=O)CCOCC2)NC1=O
PBMC pSTAT3 IC50 (nM): 17 nM

B3: Compound No. 306 (peptide)
peptide: Ac-[dR][Pen]NT[Trp(7-Me)][Phe(4-NH2)](Ac)[Pen][AEF][2Nal][Ac3c]EN[Thp]-NH2
modifications: disulfide 2-7
SMILES: CC(=O)Nc1ccc(C[C@@H]2NC(=O)[C@H](Cc3c[nH]c4c(C)cccc34)NC(=O)[C@H]([C@@H](C)O)NC(=O)[C@H](CC(N)=O)NC(=O)[C@@H](NC(=O)[C@@H](CCCNC(=N)N)NC(C)=O)C(C)(C)SSC(C)(C)[C@@H](C(=O)N[C@@H](Cc3ccc(OCCN)cc3)C(=O)N[C@@H](Cc3ccc4ccccc4c3)C(=O)NC3(C(=O)N[C@@H](CCC(=O)O)C(=O)N[C@@H](CC(N)=O)C(=O)NC4(C(N)=O)CCOCC4)CC3)NC2=O)cc1
PBMC pSTAT3 IC50 (nM): 9.6 nM

B4: Compound No. 307 (peptide)
peptide: Propionyl-[dR][Pen]QTWQ[Pen][AEF][bMe2Nal(2S,3R)][Thp]EN[Thp]-NH2
modifications: disulfide 2-7
SMILES: CCC(=O)N[C@H](CCCNC(=N)N)C(=O)N[C@@H]1C(=O)N[C@@H](CCC(N)=O)C(=O)N[C@@H]([C@@H](C)O)C(=O)N[C@@H](Cc2c[nH]c3ccccc23)C(=O)N[C@@H](CCC(N)=O)C(=O)N[C@H](C(=O)N[C@@H](Cc2ccc(OCCN)cc2)C(=O)N[C@H](C(=O)NC2(C(=O)N[C@@H](CCC(=O)O)C(=O)N[C@@H](CC(N)=O)C(=O)NC3(C(N)=O)CCOCC3)CCOCC2)[C@H](C)c2ccc3ccccc3c2)C(C)(C)SSC1(C)C
PBMC pSTAT3 IC50 (nM): 52 nM

B5: Compound No. 308 (peptide)
peptide: Ac-[dR][Pen]NT[Trp(7-Me)]K(Ac)[Pen][AEF](Ac)[2Nal][Ac3c]EN[Thp]-NH2
modifications: disulfide 2-7
SMILES: CC(=O)NCCCC[C@@H]1NC(=O)[C@H](Cc2c[nH]c3c(C)cccc23)NC(=O)[C@H]([C@@H](C)O)NC(=O)[C@H](CC(N)=O)NC(=O)[C@@H](NC(=O)[C@@H](CCCNC(=N)N)NC(C)=O)C(C)(C)SSC(C)(C)[C@@H](C(=O)N[C@@H](Cc2ccc(OCCNC(C)=O)cc2)C(=O)N[C@@H](Cc2ccc3ccccc3c2)C(=O)NC2(C(=O)N[C@@H](CCC(=O)O)C(=O)N[C@@H](CC(N)=O)C(=O)NC3(C(N)=O)CCOCC3)CC2)NC1=O
PBMC pSTAT3 IC50 (nM): 8 nM

B6: Compound No. 309 (peptide)
peptide: Ac-[dR][Pen]NT[Trp(7-Me)]K(Ac)[Pen][AEF][2Nal][Ac3c]ENHX-NH2
modifications: disulfide 2-7; not fully specified (residue 14); printed as MeCO-F[(D)Arg]-Pen-N -T-7MeW-K(Ac)-Pen-AEF-2Nal-Acpx-E-N-H-paf-CONH2
PBMC pSTAT3 IC50 (nM): 8 nM

B7: Compound No. 310 (peptide)
peptide: Ac-[dR]CNT[Trp(7-Me)]K(Ac)[αMeC][AEF][2Nal][Ac3c]EN[Thp]-NH2
modifications: disulfide 2-7
SMILES: CC(=O)NCCCC[C@@H]1NC(=O)[C@H](Cc2c[nH]c3c(C)cccc23)NC(=O)[C@H]([C@@H](C)O)NC(=O)[C@H](CC(N)=O)NC(=O)[C@@H](NC(=O)[C@@H](CCCNC(=N)N)NC(C)=O)CSSC[C@@](C)(C(=O)N[C@@H](Cc2ccc(OCCN)cc2)C(=O)N[C@@H](Cc2ccc3ccccc3c2)C(=O)NC2(C(=O)N[C@@H](CCC(=O)O)C(=O)N[C@@H](CC(N)=O)C(=O)NC3(C(N)=O)CCOCC3)CC2)NC1=O
PBMC pSTAT3 IC50 (nM): 9.9 nM

B8: Compound No. 311 (peptide)
peptide: Ac-[Pen]NT[Trp(7-Me)]K(Ac)[Pen][4PipPhe][2Nal][αMeK]K(Ac)N[αMeF]-NH2
modifications: disulfide 1-6
PBMC pSTAT3 IC50 (nM): 290 nM

B9: Compound No. 312 (peptide)
peptide: XNTXKXXXKKNF
modifications: MeCO-Pen-N-T-7MeTrp-K(Ac)-Pen-AEF-2Nal-aMeK-K(Ac)-N-bMePhe(S,R)-CONH2; cyclized: Pen-Pen disulfide bond
PBMC pSTAT3 IC50 (nM): 90 nM

B10: Compound No. 313 (peptide)
peptide: Ac-[dR][Pen]NT[Trp(7-Me)]K(Ac)[Pen][AEF][2Nal][Thp]EN[Phe(3R-Me)]-NH2
modifications: disulfide 2-7
SMILES: CC(=O)NCCCC[C@@H]1NC(=O)[C@H](Cc2c[nH]c3c(C)cccc23)NC(=O)[C@H]([C@@H](C)O)NC(=O)[C@H](CC(N)=O)NC(=O)[C@@H](NC(=O)[C@@H](CCCNC(=N)N)NC(C)=O)C(C)(C)SSC(C)(C)[C@@H](C(=O)N[C@@H](Cc2ccc(OCCN)cc2)C(=O)N[C@@H](Cc2ccc3ccccc3c2)C(=O)NC2(C(=O)N[C@@H](CCC(=O)O)C(=O)N[C@@H](CC(N)=O)C(=O)N[C@H](C(N)=O)[C@H](C)c3ccccc3)CCOCC2)NC1=O
PBMC pSTAT3 IC50 (nM): 21 nM

B11: Compound No. 314 (peptide)
peptide: Ac-[dR][Pen]NT[Trp(7-Me)]K(Ac)[Pen][AEF](BH)[2Nal][Thp]EN[αMeF]-NH2
modifications: disulfide 2-7; reading uncertain
PBMC pSTAT3 IC50 (nM): 75 nM

B12: Compound No. 315 (peptide)
peptide: Ac-[dR][Pen]NT[Trp(7-Me)]K(Ac)[Pen][AEF][2Nal][Ac3c]ENH[dPhe(4-NH2)]-NH2
modifications: disulfide 2-7
SMILES: CC(=O)NCCCC[C@@H]1NC(=O)[C@H](Cc2c[nH]c3c(C)cccc23)NC(=O)[C@H]([C@@H](C)O)NC(=O)[C@H](CC(N)=O)NC(=O)[C@@H](NC(=O)[C@@H](CCCNC(=N)N)NC(C)=O)C(C)(C)SSC(C)(C)[C@@H](C(=O)N[C@@H](Cc2ccc(OCCN)cc2)C(=O)N[C@@H](Cc2ccc3ccccc3c2)C(=O)NC2(C(=O)N[C@@H](CCC(=O)O)C(=O)N[C@@H](CC(N)=O)C(=O)N[C@@H](Cc3c[nH]cn3)C(=O)N[C@H](Cc3ccc(N)cc3)C(N)=O)CC2)NC1=O
PBMC pSTAT3 IC50 (nM): 2 nM

B13: Compound No. 316 (peptide)
peptide: Ac-[dR][Pen]NT[Trp(7-Me)]K(Ac)[Pen][AEF][2Nal][Ac3c]ENH[4AcDPhe]-NH2
modifications: disulfide 2-7
SMILES: CC(=O)NCCCC[C@@H]1NC(=O)[C@H](Cc2c[nH]c3c(C)cccc23)NC(=O)[C@H]([C@@H](C)O)NC(=O)[C@H](CC(N)=O)NC(=O)[C@@H](NC(=O)[C@@H](CCCNC(=N)N)NC(C)=O)C(C)(C)SSC(C)(C)[C@@H](C(=O)N[C@@H](Cc2ccc(OCCN)cc2)C(=O)N[C@@H](Cc2ccc3ccccc3c2)C(=O)NC2(C(=O)N[C@@H](CCC(=O)O)C(=O)N[C@@H](CC(N)=O)C(=O)N[C@@H](Cc3c[nH]cn3)C(=O)N[C@H](Cc3ccc(C(C)=O)cc3)C(N)=O)CC2)NC1=O
PBMC pSTAT3 IC50 (nM): 2.1 nM

B14: Compound No. 317 (peptide)
peptide: XNTXKXXXXENX
modifications: MeCO-Pen-N-T-7MeW-K(Ac)-Pen-AEF-2Nal-Acpx-E-N-THP---CONH2; cyclized: Pen-Pen disulfide bond
PBMC pSTAT3 IC50 (nM): 13 nM

B15: Compound No. 11 (peptide)
peptide: Ac-[dR][Abu]QT[Trp(7-Ph)]K(Ac)C[AEF][2Nal][αMeK]K(Ac)N[αMeF]-NH2
modifications: thioether 2-7
pStat3 HTRF (nM), IC50, DB cells IL23R pSTAT3 cell assay: 13.9 nM

B16: Compound No. 12 (peptide)
peptide: RXQTWQCFXXENN
modifications: not fully specified; Ac-[(D)Arg]-[Abu]-Q-T-W-Q-[Cys]-Phe[4-(2-aminoethoxy)]-[2-Nal]-[THP]-E-N-N-ac; cyclized: Abu-Cys thioether bond
PBMC pSTAT3 IC50 (nM): 20 nM

B17: Compound No. 17 (peptide)
peptide: Ac-[dR][Abu]QTWQC[AEF][2Nal][Thp]ENF-NH2
modifications: thioether 2-7
PBMC pSTAT3 IC50 (nM): 3.4 nM

B18: Compound No. 20 (peptide)
peptide: [dR]CQTWQ[Pen][AEF][2Nal][Thp]EN[Thp]-NH2
modifications: disulfide 2-7; not fully specified (N-terminus)
PBMC pSTAT3 IC50 (nM): 3.1 nM

B19: Compound No. 21 (peptide)
peptide: [dR][Abu]QTWQC[Phe(4-OMe)″][2Nal][Thp]EN[Thp]-NH2
modifications: thioether 2-7; not fully specified (N-terminus)
PBMC pSTAT3 IC50 (nM): 21 nM

B20: Compound No. 22 (peptide)
peptide: [dR][Abu]QTWQC[Phe(4-OMe)″][2Nal][Thp]EN[Thp]-NH2
modifications: thioether 2-7
PBMC pSTAT3 IC50 (nM): 22 nM

Source: US20220402983A1 (Janssen / Centocor, published 2022)
